# Literature values as cited in article PMC4301871, “WW Domains of the Yes-Kinase-Associated-Protein (YAP) Transcriptional Regulator Behave as Independent Units with Different Binding Preferences for PPxY Motif-Containing Ligands” (PLoS ONE, 2015).
# Like-named read-outs stand apart in the source and are kept apart here.
# What was measured:
# p53BP2 (Homo sapiens) [1] = target: p53BP2 (Homo sapiens)
# p53BP2 (Homo sapiens) [2] = target: p53BP2 (Homo sapiens); remark: listed apart in the source
# YAP WW2, sequence (P46937 227-266): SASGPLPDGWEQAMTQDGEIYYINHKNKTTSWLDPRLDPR
# YAP WW1, sequence (P46937 168-207): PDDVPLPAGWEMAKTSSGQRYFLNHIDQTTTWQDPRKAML
Kd (p53BP2 (Homo sapiens) [1]) [µM],Kd (p53BP2 (Homo sapiens) [2]) [µM],Substance
1.8,–,YAP WW1 (from UniProt P46937)
–,12,YAP WW2 (from UniProt P46937)
